pKd: −log10 of the molar value. Each block holds one substance with its values, some of them ahead of it.
Columns and labels:
[1] = biological target: human Mdm2 (1-125) (human); assay: fluorescence polarisation; competitive fluorescence anisotropy: 250 nM Mdm2 (1-125) with 50 nM FAM-labeled 12/1 peptide, competing peptide titrated; apparent Kd from the fit with Kd1 = […]; PBS pH 7.4, 0.001% Tween-20; geometric means
human Mdm2 1-125 (human) [2] = assay: fluorescence polarisation; competitive fluorescence anisotropy: unlabelled peptide titrated against 250 nM Mdm2 (1-125) with 50 nM FAM-labelled 12/1 peptide (FAM-…-NH2); PBS pH 7.4, 0.001% Tween-20; apparent Kd, geometric means
human Mdm2 1-125 (human), sequence (Q00987 1-125): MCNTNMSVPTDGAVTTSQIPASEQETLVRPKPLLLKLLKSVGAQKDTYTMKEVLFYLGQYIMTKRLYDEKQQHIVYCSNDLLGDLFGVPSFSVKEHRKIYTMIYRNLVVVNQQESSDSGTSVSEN

human Mdm2 1-125 (human) [3] = assay: as above; remark: listed apart in the source
human Mdm2 1-125 (human) [4] = assay: fluorescence polarisation
human Mdm2 (1-125) = assay: fluorescence anisotropy competition assay (FAM-12/1 tracer); settings: tested in duplicate; parent MP-081 KD = 5 nM
[5] = biological target: human Mdm2 (1-125) (human); assay: fluorescence polarisation
[6] = biological target: human Mdm2 (1-125) (human); assay: fluorescence polarisation; competitive fluorescence anisotropy: 250 nM Mdm2 (1-125) with 50 nM FAM-labeled 12/1 peptide, competing peptide titrated; apparent Kd from the fit with Kd1 = […]; PBS pH 7.4, 0.001% Tween-20; geometric means; remark: listed apart in the source

human Mdm2 (1-125) (human), sequence (Q00987 1-125): as above

Substance: AZIDE-ATSP-7041 (W7 TO 6-FLURO-1-TRP) (peptide)
pKd (human Mdm2 1-125 (human) [4]): 9.00

Substance: azide-ATSP-7041 (MP-081) S12E
ratio to parent (human Mdm2 (1-125)): > 2 x stronger

Substance: azide-ATSP-7041 (MP-081) W7(TFm-F) (TFm-F = trifluoromethyl-Phe)
ratio to parent (human Mdm2 (1-125)): > 2 x stronger

Substance: AZIDE-ATSP-7041 (E5A) (peptide)
pKd (human Mdm2 1-125 (human) [3]): 7.32 | pKd (human Mdm2 1-125 (human) [2]): 7.31

Substance: AZIDE-ATSP-7041 (L1A, E5A, Q9A) (peptide)
pKd (human Mdm2 1-125 (human) [2]): 7.02

Substance: azide-ATSP-7041 (MP-081) A14E
ratio to parent (human Mdm2 (1-125)): > 2 x stronger

Substance: AZIDE-ATSP-7041 (A8 TO D-ALA) (peptide)
pKd (human Mdm2 1-125 (human) [4]): 7.18

Substance: azide-ATSP-7041 (MP-081) W7(6F-1-W) (6F-1-W = 6-Fluoro-1-Trp)
ratio to parent (human Mdm2 (1-125)): > 2 x stronger

Substance: azide-ATSP-7041 (MP-081) Q9K
ratio to parent (human Mdm2 (1-125)): < 2 x (within)

Substance: azide-ATSP-7041 (MP-081) Q9H
ratio to parent (human Mdm2 (1-125)): < 2 x (within)

Substance: AZIDE-ATSP-7041 (L1Y, E5Y, A8Y) (peptide)
pKd (human Mdm2 1-125 (human) [3]): 6.43

Substance: azide-ATSP-7041 (MP-081) (peptide)
pKd [5]: 8.30

Substance: azide-ATSP-7041 (L1D, E5D, A8D) (MP-495) (peptide)
pKd [1]: 8.30

Substance: AZIDE-ATSP-7041 (L1A,T2A) (peptide)
pKd (human Mdm2 1-125 (human) [2]): 7.58

Substance: AZIDE-ATSP-7041 (T2V) (peptide)
pKd (human Mdm2 1-125 (human) [3]): 7.15

Substance: AZIDE-ATSP-7041 (S12W) (peptide)
pKd (human Mdm2 1-125 (human) [3]): 7.32

Substance: azide-ATSP-7041 (MP-081) S12a (a = D-alanine)
ratio to parent (human Mdm2 (1-125)): < 2 x (within)

Substance: azide-ATSP-7041 (MP-081) T2K
ratio to parent (human Mdm2 (1-125)): < 2 x (within)

Substance: azide-ATSP-7041 (MP-081) S12H
ratio to parent (human Mdm2 (1-125)): < 2 x (within)

Substance: azide-ATSP-7041 (MP-081) W7(DC-F) (DC-F = 3,4-Dichloro-Phe)
ratio to parent (human Mdm2 (1-125)): < 2 x (within)

Substance: azide-ATSP-7041 (MP-081) L1E
ratio to parent (human Mdm2 (1-125)): < 2 x (within)

Substance: azide-ATSP-7041 (MP-081) A13a (a = D-alanine)
ratio to parent (human Mdm2 (1-125)): < 2 x (within)

Substance: azide-ATSP-7041 (MP-081) S12hR (hR = homo-arginine)
ratio to parent (human Mdm2 (1-125)): < 2 x (within)

Substance: azide-ATSP-7041 (MP-081) L1H
ratio to parent (human Mdm2 (1-125)): < 2 x (within)

Substance: azide-ATSP-7041 (MP-081) A14hR (hR = homo-arginine)
ratio to parent (human Mdm2 (1-125)): < 2 x (within)

Substance: azide-ATSP-7041 (MP-081) A8E
ratio to parent (human Mdm2 (1-125)): < 2 x (within)

Substance: azide-ATSP-7041 (MP-081) T2hR (hR = homo-arginine)
ratio to parent (human Mdm2 (1-125)): < 2 x (within)

Substance: AZIDE-ATSP-7041 (S12G) (peptide)
pKd (human Mdm2 1-125 (human) [3]): 7.91

Substance: AZIDE-ATSP-7041 (Q9G) (peptide)
pKd (human Mdm2 1-125 (human) [3]): 7.72

Substance: AZIDE-ATSP-7041 (S12A) (peptide)
pKd (human Mdm2 1-125 (human) [4]): 7.44

Substance: azide-ATSP-7041 (MP-081) A8W
ratio to parent (human Mdm2 (1-125)): < 2 x (within)

Now from value to substance:

pKd [1]: 6.94
Substance: azide-ATSP-7041 with Cba10 substituted by Ala (peptide)

pKd (human Mdm2 1-125 (human) [2]): 7.10
Substance: AZIDE-ATSP-7041 (T2A,Q9A) (peptide)

pKd (human Mdm2 1-125 (human) [3]): 9.15
Substance: AZIDE-ATSP-7041 (A14E) (peptide)

pKd (human Mdm2 1-125 (human) [3]): 5.11
Substance: AZIDE-ATSP-7041 (E5P) (peptide)

pKd (human Mdm2 1-125 (human) [2]): 7.38
Substance: AZIDE-ATSP-7041 (L1A,E5A) (peptide)

pKd (human Mdm2 1-125 (human) [3]): 8.28
Substance: AZIDE-ATSP-7041 (L1D, E5D, A8D) (peptide)

pKd (human Mdm2 1-125 (human) [3]): 8.28
Substance: AZIDE-ATSP-7041 (W7 TO 3,4-DICHLORO-PHE) (peptide)

pKd (human Mdm2 1-125 (human) [3]): 8.02
Substance: AZIDE-ATSP-7041 (L1G) (peptide)

pKd (human Mdm2 1-125 (human) [3]): 7.07
Substance: AZIDE-ATSP-7041 (Q9W) (peptide)

pKd [1]: 7.25
Substance: azide-ATSP-7041 with Cba10 substituted by Leu (peptide)

pKd (human Mdm2 1-125 (human) [3]): 8.07
Substance: AZIDE-ATSP-7041 (A8W) (peptide)

pKd (human Mdm2 1-125 (human) [2]): 7.79
Substance: AZIDE-ATSP-7041 (L1A,S12A) (peptide)

pKd [1]: 5.11
Substance: azide-ATSP-7041 (E5P) (peptide)

pKd (human Mdm2 1-125 (human) [3]): 6.93
Substance: AZIDE-ATSP-7041 (L1R, Y6F, L9R) (peptide)

pKd (human Mdm2 1-125 (human) [3]): 7.27
Substance: AZIDE-ATSP-7041 (Q9A) (peptide)

pKd (human Mdm2 1-125 (human) [2]): 7.51
Substance: AZIDE-ATSP-7041 (E5A,S12A) (peptide)

pKd (human Mdm2 1-125 (human) [3]): 8.04
Substance: AZIDE-ATSP-7041 (L1R, A8R, A13R) (peptide)

pKd [1]: 7.82
Substance: azide-ATSP-7041 (L1N, E5N, A8N, S12N, A13N, A14N) (MP-359) (peptide)

pKd (human Mdm2 1-125 (human) [2]): 7.44
Substance: AZIDE-ATSP-7041 (E5L, A8L) (peptide)

pKd (human Mdm2 1-125 (human) [3]): 9.14
Substance: AZIDE-ATSP-7041 (S12E) (peptide)

pKd (human Mdm2 1-125 (human) [3]): 8.62
Substance: NH2-EEE-AZIDE-SGS-PM2-EEE (peptide)

pKd (human Mdm2 1-125 (human) [3]): 7.73
Substance: AZIDE-ATSP-7041 (Q9 TO D-ALA) (peptide)

pKd (human Mdm2 1-125 (human) [3]): 7.17
Substance: AZIDE-ATSP-7041 (E5G) (peptide)

pKd (human Mdm2 1-125 (human) [3]): 7.27
Substance: AZIDE-ATSP-7041 (L1A, E5A, Q9A, S12A) (peptide)

pKd (human Mdm2 1-125 (human) [2]): 6.56
Substance: AZIDE-ATSP-7041 (T2A,E5A) (peptide)

pKd (human Mdm2 1-125 (human) [2]): 7.34
Substance: AZIDE-ATSP-7041 (Q9A,S12A) (peptide)

pKd (human Mdm2 1-125 (human) [3]): 6.94
Substance: AZIDE-ATSP-7041 (CBA10 TO A) (peptide)

pKd (human Mdm2 1-125 (human) [3]): 7.19
Substance: AZIDE-ATSP-7041 (L1R, Q9R, S12K) (peptide)

pKd (human Mdm2 1-125 (human) [3]): 7.30
Substance: AZIDE-ATSP-7041 (S12P) (peptide)

pKd (human Mdm2 1-125 (human) [3]): 6.69
Substance: AZIDE-ATSP-7041 (T2W) (peptide)

pKd (human Mdm2 1-125 (human) [3]): 7.65
Substance: AZIDE-ATSP-7041 (L1P) (peptide)

pKd (human Mdm2 1-125 (human) [3]): 8.10
Substance: AZIDE-ATSP-7041 (L1 TO D-ALA) (peptide)

pKd (human Mdm2 1-125 (human) [3]): 7.15
Substance: AZIDE-ATSP-7041 (T2 TO D-ALA) (peptide)

pKd (human Mdm2 1-125 (human) [2]): 6.81
Substance: AZIDE-KK-ATSP-7041 (L1A,T2A,E5A,Q9A,S12A) (peptide)

pKd (human Mdm2 1-125 (human) [3]): 7.01
Substance: AZIDE-ATSP-7041 (E5W) (peptide)

pKd (human Mdm2 1-125 (human) [2]): 7.42
Substance: AZIDE-ATSP-7041 (E5A,Q9A) (peptide)

pKd (human Mdm2 1-125 (human) [3]): 9.00
Substance: AZIDE-ATSP-7041 (W7 TO TRIFLUOROMETHYL-PHE) (peptide)

pKd (human Mdm2 1-125 (human) [3]): 7.78
Substance: AZIDE-ATSP-7041 (L1W) (peptide)

pKd (human Mdm2 1-125 (human) [3]): 5.34
Substance: AZIDE-ATSP-7041(W7A) (peptide)

pKd (human Mdm2 1-125 (human) [3]): 7.85
Substance: AZIDE-ATSP-7041(A13E) (peptide)

pKd (human Mdm2 1-125 (human) [3]): 7.94
Substance: AZIDE-ATSP-7041 (E5 TO D-ALA) (peptide)

pKd (human Mdm2 1-125 (human) [2]): 7.43
Substance: AZIDE-ATSP-7041 (T2A,S12A) (peptide)

pKd (human Mdm2 1-125 (human) [2]): 7.67
Substance: AZIDE-ATSP-7041 (L1A,Q9A) (peptide)

pKd (human Mdm2 1-125 (human) [3]): 7.34
Substance: AZIDE-ATSP-7041 (Q9P) (peptide)

pKd (human Mdm2 1-125 (human) [3]): 8.48
Substance: AZIDE-ATSP-7041 (Y6F) (peptide)

pKd [6]: 8.61 | pKd [1]: 8.60
Substance: ALRN-6924 (Sulanemadlin, MP-4897) (peptide)

From PMC10786919, “Design-rules for stapled peptides with in vivo activity and their application to Mdm2/X antagonists” (Nature Communications, 2024)
